Measured values from the supplement of paper PMC10126150.
± gives the standard deviation of the averaged measurements.

system: ATP; test: switch fluorescence ratio, 500 uM ATP over buffer (Cy3 cluster intensity, sum of 5 cycles each) (fold (ratio)); higher = stronger signal-on switching upon ATP binding; sequences stand for … in TCGTCGGCAGCGTCAGATGTGTATAAGAGACAGTTTTTTTTTTTTTTTTTTTTTTTTT…TC; conditions: aptamer strand: ATP DNA aptamer (quencher-CACCTGGGGGAGTATTGCGGAGGAAGG + anchor), 100 nM annealed; ATP concentration: 500 uM
In short: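 Five buffer/ATP imaging cycles were run on Cy3-labelled switching-strand clusters on a modified Illumina MiSeq flow-cell, with NaOH stripping and re-annealing between cycles. In each cycle, clusters annealed to 100 nM quencher-labelled ATP aptamer were imaged in selection buffer, then after 15 min with 500 uM ATP at 22 °C. Per cluster, the fluorescence ratio is summed target-cycle over summed buffer-cycle Cy3 intensity, averaged per switch-domain sequence. Only clusters within 100-1000 RFU were kept.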
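Note: ATP exposure 15 min at 22 °C before imaging.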

Sequence | switch fluorescence ratio
GATAAATGTA | 0.9808 ± 0.0084
TCAGTCGTGG | 0.9928 ± 0.0033
TATTTAGACC | 1.04 ± 0.012
TCCGGGTTGG | 1.03 ± 0.013
TGCGTCAGGC | 1.09 ± 0.045
CCCCTCGAGG | 0.966 ± 0.049
GAGAATCGGA | 0.965 ± 0.012
AGGGGGGGCT | 0.985 ± 0.024
TCATCACCGT | 1.01 ± 0.021
TCAAAGTACC | 1.16 ± 0.073
AGGAGGATGT | 0.98 ± 0.01
AGGAGTAATC | 1.04 ± 0.072
TAGTTTGGAT | 1.01 ± 0.026
GAATGGCACG | 1.003 ± 0.008
TTTAAAAGGT | 1 ± 0.011
TAGGGCATTG | 1.01 ± 0.012
GTATGAAATG | 0.999 ± 0.022
ACTCGGTGTG | 0.992 ± 0.029
CCGTGGGATG | 0.986 ± 0.031
GATGTTTGGA | 1.014 ± 0.0049
CCAGGGGGGC | 1.16 ± 0.061
CCAGCATAGA | 1.14 ± 0.044
CAATTGGATG | 1 ± 0.073
AAAAACGCTG | 1.039 ± 0.0093
AATTTGATTC | 1.02 ± 0.058

Sequence | switch fluorescence ratio
TAGGACCAGC | 0.98 ± 0.012
TTTGTACCCT | 1.064 ± 0.0021
GTGGGACACG | 1.01 ± 0.048
ATGTTGGGGA | 0.996 ± 0.019
GGGGGGCTCG | 0.973 ± 0.064
GGAAATGGTG | 1.1 ± 0.11
TTCTCGATCT | 1.03 ± 0.037
TAGGATTGTA | 0.9806 ± 0.0089
GGAAGGATTC | 0.999 ± 0.013
GCTACCTTTT | 1.06 ± 0.069
TTATCCGGTT | 1.01 ± 0.012
TAGGGCATCG | 1.01 ± 0.03
GGTTGAGCTC | 0.973 ± 0.063
TTGCCCCTTA | 1.03 ± 0.045
TAAGTGTTAG | 1.013 ± 0.0074
CGGGGTATGG | 1 ± 0.011
TAAGAATGGG | 0.9966 ± 0.0078
CTCTGTAGGC | 1.87 ± 0.31
GGGGTGATGG | 1.02 ± 0.02
GTATGATGTG | 0.9915 ± 0.008
CGAGGATGT | 1.01 ± 0.011
GCATAATGGG | 1.008 ± 0.0057
GGGTGGTTGG | 0.999 ± 0.0088
AAGCTGACAG | 1.01 ± 0.013
CGAAGAGGCG | 0.997 ± 0.052

Sequence | switch fluorescence ratio
TGAGATTAAA | 1.01 ± 0.0098
TGGGCGGGAT | 1 ± 0.039
ACCTGCATGG | 1.05 ± 0.11
CATGGGATGC | 1.08 ± 0.1
GGGAAGGGGG | 1 ± 0.034
GCTCTGAGTG | 1.013 ± 0.0075
ACTGGGCTGT | 1.06 ± 0.062
CGTAGTTTTA | 1.044 ± 0.0041
CTGGGTCTTT | 0.99 ± 0.015
AGTTTACTGT | 1.02 ± 0.072
AGGCCGGAAT | 1.27 ± 0.46
CGAGTAGTAG | 1.03 ± 0.059
TCTTTTAGTA | 0.991 ± 0.035
ATGGCCTTAA | 0.982 ± 0.028
CCACAGAAAA | 1.033 ± 0.006
CTATGATTCG | 1.01 ± 0.023
TAGGAGCGAT | 1.15 ± 0.031
GTGAAAAGGG | 0.963 ± 0.038
GGCGGGTGCG | 0.984 ± 0.028
CGTGGCGCGT | 1.05 ± 0.11
TATGATGTTA | 0.9931 ± 0.0093
TTATTTCATG | 0.984 ± 0.022
TTATTGTGGA | 0.9885 ± 0.0023
AGGCTTAATC | 0.9903 ± 0.0069
AGGTAGGGGC | 1.02 ± 0.026

Sequence | switch fluorescence ratio
ATTGGCGTTT | 0.996 ± 0.049
ATAGGTTTTG | 0.9864 ± 0.004
AGGGCATTAG | 1 ± 0.1
AAGAGTCGGG | 0.972 ± 0.051
CCGAGGAGAG | 1.1 ± 0.037
CTTCAGGAGC | 1.69 ± 0.11
CAGGTTATGG | 0.958 ± 0.042
ATTTGGTTA | 0.993 ± 0.035
GACTTTGTGC | 0.9772 ± 0.0022
ATGAGGTTCA | 0.9759 ± 0.0049
CGGGGATAGG | 1.041 ± 0.0075
CTAATTTGGT | 1.01 ± 0.016
CCAGGTTTTT | 1.04 ± 0.017
GTTCCTTGGG | 1.01 ± 0.016
GGATGGGTTT | 1 ± 0.016
TCATCATGTT | 1.01 ± 0.043
TTTTGGACTA | 1.05 ± 0.081
GCCGCGAAGG | 1.02 ± 0.018
AAGGATTAGC | 1.04 ± 0.11
GGGGGTCGCG | 0.991 ± 0.034
TGGGGTAATC | 1.03 ± 0.07
CGGTAGTATC | 0.982 ± 0.049
CAGGGCTGGT | 0.976 ± 0.015
TGGTGGAGGG | 1 ± 0.032
AGTTATTAGG | 1.02 ± 0.032

Sequence | switch fluorescence ratio
AATTATAATG | 1.034 ± 0.0047
ATGTACTGGG | 1.08 ± 0.043
GAGGTGAGTG | 0.9921 ± 0.0066
TGTGAGGCGT | 0.993 ± 0.0036
CCGGACGTTC | 1.53 ± 0.042
GAATGTGATA | 0.984 ± 0.018
AGGGGTCCGT | 0.969 ± 0.018
ATTAGAGGGA | 1.01 ± 0.029
TATTAATTTT | 1.02 ± 0.015
TTAAACCCGC | 1.08 ± 0.019
AGGGAATGTA | 0.99 ± 0.016
ACGACTTGGT | 1.09 ± 0.11
ACAGGGAGGG | 1.02 ± 0.015
GTGCCCCAAG | 1 ± 0.015
AGGGAACGGG | 1.01 ± 0.055
GTTGCTTTTT | 0.998 ± 0.035
CTGATTTGTA | 1 ± 0.053
GCCCCGTTTG | 1.0184 ± 0.00021
GACTCAATGG | 1.14 ± 0.03
GGAGATTTGG | 0.979 ± 0.011
GCGATTGTGT | 1.002 ± 0.0055
ATAGTGTTGA | 1.03 ± 0.011
TTTATCCGAC | 1.15 ± 0.027
CCTTGGGGTG | 1.06 ± 0.14
ACGTCGGGGG | 1 ± 0.021

Sequence | switch fluorescence ratio
TGCGAACCTT | 1.71 ± 0.12
CAAGTGGGGG | 1.02 ± 0.038
GGTGTGTATC | 1.01 ± 0.02
GGTAATGGCA | 1.01 ± 0.039
GGTGGGGTTA | 0.984 ± 0.038
GGTACAGGGC | 1.065 ± 0.0073
CGTATTCGCT | 0.993 ± 0.021
GACTCTGAGT | 1.01 ± 0.017
ATGAATTCTG | 1.059 ± 0.0049
CAGGTATGTT | 1 ± 0.016
TTATTGTTGT | 1 ± 0.014
TCCTTGAGTG | 1.03 ± 0.031
ATTGGGGGAG | 0.987 ± 0.033
TTCTGAGGGG | 1.03 ± 0.035
AATGTCTGGG | 0.9982 ± 0.0018
TTAAAAAAGA | 0.998 ± 0.013
CGTGCCAGCA | 0.983 ± 0.045
GTGCGCATTG | 1.03 ± 0.046
TTTTCTATTT | 0.998 ± 0.018
ATTGCGGCTA | 1.03 ± 0.033
CGTATATGTG | 0.989 ± 0.035
CCGGGGTCGT | 1.02 ± 0.012
GTTACTGCTG | 1.03 ± 0.043
GATAACGGGG | 0.972 ± 0.02
GGGGGAATGT | 0.983 ± 0.026

Sequence | switch fluorescence ratio
CGGTGGGAGA | 1.023 ± 0.0078
GGGTTCATGG | 1.01 ± 0.047
TAGAGCTTAG | 0.9812 ± 0.0037
TAGGACGTGC | 0.9627 ± 0.0032
CATGGATAGG | 1.011 ± 0.008
CACGGTTGTT | 1.015 ± 0.0074
GAAATGATTT | 1.0406 ± 6.4e-05
TGATTTTACC | 1.06 ± 0.015
TATGTGTGAC | 1.03 ± 0.021
CAGCGATTTA | 1.02 ± 0.053
ACGGGAATTG | 1.04 ± 0.019
TGGTTCGTCT | 0.955 ± 0.058
TACCAAACGG | 2.23 ± 1.4
GACTGTGATC | 1.037 ± 0.0042
GACTCTTGAA | 0.995 ± 0.071
TGTTTGGGGT | 0.996 ± 0.055
TGGTGTTTGC | 1 ± 0.038
TGTGTTAGGG | 0.979 ± 0.049
ATTGGGGAGG | 0.974 ± 0.012
GGCCGGGTTA | 1.01 ± 0.042
CGACTAGGGG | 1.01 ± 0.024
TCGGGAAATT | 1.012 ± 0.0019
ACATCTATTC | 1.01 ± 0.034
ATGCGGTGTG | 0.978 ± 0.04
TTGAAGAAAA | 1.97 ± 1.3

Sequence | switch fluorescence ratio
TGAAGTTCTT | 0.965 ± 0.011
GGGTAGGGGC | 1.02 ± 0.026
TTTGTATGTT | 0.991 ± 0.051
TTCAGGGGAG | 0.975 ± 0.04
CAAGTTGTTT | 0.996 ± 0.021
GTTTGAGGCG | 1 ± 0.012
CGTGGCTATG | 0.959 ± 0.019
CTAAGTAGCC | 1.01 ± 0.015
TGAAAATAG | 0.992 ± 0.018
TTGGGTATTT | 0.986 ± 0.021
TCAGTTCTTC | 0.989 ± 0.011
AAAACTTTTT | 1.04 ± 0.051
GATTTGCAGA | 1 ± 0.024
AAGTTCGTTT | 0.986 ± 0.026
GGGGCGGGA | 1.08 ± 0.016
GGTTTCGTTT | 1.002 ± 0.0063
TTTACGGCTA | 1.06 ± 0.014
TTATAGGTAT | 0.9803 ± 0.0054
TTTCTTGGGG | 0.979 ± 0.018
GATATTGTGG | 0.987 ± 0.025
GGCGGCAAAA | 1.07 ± 0.042
ACGATAGGGC | 1.06 ± 0.046
GGATCTAGAA | 0.9644 ± 0.008
GGATTAATGT | 0.971 ± 0.022
TTAGGTTAGA | 0.993 ± 0.014
